In PMC7583008:

Key:
[1] = molecular target: GH2 β-mannosidase from Cellulomonas fimi (EC 3.2.1.25) (Cellulomonas fimi) (UniProt Q9XCV4); assay: enzyme inhibition titration (residual activity against inhibitor/enzyme ratio); fixed enzyme (11.8 μM) preincubated with increasing γC for 10 min at room temperature; 100 mM sodium maleate pH 6.0, BSA 1 mg/mL, 1 mM Zn2+, pNP-β-D-mannopyranoside 0.8 mM, 35 °C, 15 min; Ki calculated from the IC50 by the method of Cer et al., assuming competitive inhibition (Km 300 μM); stoichiometry from the x-intercept of the tangent line
[2] = molecular target: GH2 β-mannosidase from Cellulomonas fimi (EC 3.2.1.25) (Cellulomonas fimi) (UniProt Q9XCV4)
[3] = molecular target: GH2 β-mannosidase from Cellulomonas fimi (EC 3.2.1.25) (Cellulomonas fimi) (UniProt Q9XCV4); remark: listed apart in the source
[4] = molecular target: GH2 β-mannosidase from Cellulomonas fimi (EC 3.2.1.25) (Cellulomonas fimi) (UniProt Q9XCV4); remark: listed apart in the source

UniProt Q9XCV4, sequence (Q9XCV4 entry or part of it): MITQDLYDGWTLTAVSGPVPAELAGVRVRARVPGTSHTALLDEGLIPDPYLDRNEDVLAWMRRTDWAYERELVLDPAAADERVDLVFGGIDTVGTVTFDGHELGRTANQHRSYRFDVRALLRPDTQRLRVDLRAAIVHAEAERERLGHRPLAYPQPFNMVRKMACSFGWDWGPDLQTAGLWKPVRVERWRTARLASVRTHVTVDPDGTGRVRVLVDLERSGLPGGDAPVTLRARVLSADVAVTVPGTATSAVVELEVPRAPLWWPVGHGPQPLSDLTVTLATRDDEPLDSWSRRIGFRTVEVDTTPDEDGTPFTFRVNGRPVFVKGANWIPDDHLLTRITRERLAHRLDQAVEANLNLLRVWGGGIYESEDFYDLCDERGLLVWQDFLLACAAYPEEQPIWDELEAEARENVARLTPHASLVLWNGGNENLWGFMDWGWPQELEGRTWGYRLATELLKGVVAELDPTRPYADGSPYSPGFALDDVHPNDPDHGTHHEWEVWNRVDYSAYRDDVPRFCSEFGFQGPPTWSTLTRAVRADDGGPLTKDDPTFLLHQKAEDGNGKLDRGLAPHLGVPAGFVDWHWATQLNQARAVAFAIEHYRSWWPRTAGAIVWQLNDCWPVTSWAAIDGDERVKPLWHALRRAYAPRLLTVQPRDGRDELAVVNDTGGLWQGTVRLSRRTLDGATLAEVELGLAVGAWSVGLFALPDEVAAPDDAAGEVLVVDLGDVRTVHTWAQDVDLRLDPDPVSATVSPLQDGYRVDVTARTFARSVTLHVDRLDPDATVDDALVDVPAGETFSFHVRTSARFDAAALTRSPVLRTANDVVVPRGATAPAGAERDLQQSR

- Ki [1]: 1550 nM
- stoichiometry N (enzyme/inhibitor) [1]: 1.14
- residual activity of GH2 β-mannosidase with γC at a molar ratio of 1:1 (pNP-β-D-mannopyranoside as substrate, no metal added) [2]: 73%
- residual activity of GH2 β-mannosidase with γC at a molar ratio of 1:1 in the presence of 1 mM Zn2+ [3]: 55%
- IC50 of the inhibition of GH2 β-mannosidase activity by γC, as a molar ratio (11.8 μM enzyme, 1 mM Zn2+, pH 6.0) (molar ratio [γC]/[GH2]) [4]: 0.99
Substance: Lupinus albus γ-conglutin (natural protein)
